Experimental findings from paper PMC4260256, “A novel serine hydroxymethyltransferase from Arthrobacter nicotianae: characterization and improving catalytic efficiency by rational design” (BMC Biotechnology, 2014) are described below.

The test system of the data set is NC(C(=O)O)C(O)c1ccccc1. Kind of data set: purified protein. Particulars: pH 7.8; 40.0 °C.

Take “AnSHMT (Glutamicibacter nicotianae; I249L)”: the Km came out at 61.95 ± 0.13 mM and the kcat/Km is 76.8 M⁻¹ s⁻¹.
